Our source for the ratio to parent values is paper PMC5096884.

The assay concerns the target Not1-3HA (UniProt P25655). As to the kind of experiment: co-immunoprecipitation (TAP pull-down on IgG-coupled magnetic beads), Western blot quantification. Conditions: cells in exponential growth phase; n=5 biological replicates; parent: est. 1.0; read off a plot. A general note: Immunoblotting shows a protein as a band on a membrane.
Chain of UniProt P25655 (P25655 whole entry): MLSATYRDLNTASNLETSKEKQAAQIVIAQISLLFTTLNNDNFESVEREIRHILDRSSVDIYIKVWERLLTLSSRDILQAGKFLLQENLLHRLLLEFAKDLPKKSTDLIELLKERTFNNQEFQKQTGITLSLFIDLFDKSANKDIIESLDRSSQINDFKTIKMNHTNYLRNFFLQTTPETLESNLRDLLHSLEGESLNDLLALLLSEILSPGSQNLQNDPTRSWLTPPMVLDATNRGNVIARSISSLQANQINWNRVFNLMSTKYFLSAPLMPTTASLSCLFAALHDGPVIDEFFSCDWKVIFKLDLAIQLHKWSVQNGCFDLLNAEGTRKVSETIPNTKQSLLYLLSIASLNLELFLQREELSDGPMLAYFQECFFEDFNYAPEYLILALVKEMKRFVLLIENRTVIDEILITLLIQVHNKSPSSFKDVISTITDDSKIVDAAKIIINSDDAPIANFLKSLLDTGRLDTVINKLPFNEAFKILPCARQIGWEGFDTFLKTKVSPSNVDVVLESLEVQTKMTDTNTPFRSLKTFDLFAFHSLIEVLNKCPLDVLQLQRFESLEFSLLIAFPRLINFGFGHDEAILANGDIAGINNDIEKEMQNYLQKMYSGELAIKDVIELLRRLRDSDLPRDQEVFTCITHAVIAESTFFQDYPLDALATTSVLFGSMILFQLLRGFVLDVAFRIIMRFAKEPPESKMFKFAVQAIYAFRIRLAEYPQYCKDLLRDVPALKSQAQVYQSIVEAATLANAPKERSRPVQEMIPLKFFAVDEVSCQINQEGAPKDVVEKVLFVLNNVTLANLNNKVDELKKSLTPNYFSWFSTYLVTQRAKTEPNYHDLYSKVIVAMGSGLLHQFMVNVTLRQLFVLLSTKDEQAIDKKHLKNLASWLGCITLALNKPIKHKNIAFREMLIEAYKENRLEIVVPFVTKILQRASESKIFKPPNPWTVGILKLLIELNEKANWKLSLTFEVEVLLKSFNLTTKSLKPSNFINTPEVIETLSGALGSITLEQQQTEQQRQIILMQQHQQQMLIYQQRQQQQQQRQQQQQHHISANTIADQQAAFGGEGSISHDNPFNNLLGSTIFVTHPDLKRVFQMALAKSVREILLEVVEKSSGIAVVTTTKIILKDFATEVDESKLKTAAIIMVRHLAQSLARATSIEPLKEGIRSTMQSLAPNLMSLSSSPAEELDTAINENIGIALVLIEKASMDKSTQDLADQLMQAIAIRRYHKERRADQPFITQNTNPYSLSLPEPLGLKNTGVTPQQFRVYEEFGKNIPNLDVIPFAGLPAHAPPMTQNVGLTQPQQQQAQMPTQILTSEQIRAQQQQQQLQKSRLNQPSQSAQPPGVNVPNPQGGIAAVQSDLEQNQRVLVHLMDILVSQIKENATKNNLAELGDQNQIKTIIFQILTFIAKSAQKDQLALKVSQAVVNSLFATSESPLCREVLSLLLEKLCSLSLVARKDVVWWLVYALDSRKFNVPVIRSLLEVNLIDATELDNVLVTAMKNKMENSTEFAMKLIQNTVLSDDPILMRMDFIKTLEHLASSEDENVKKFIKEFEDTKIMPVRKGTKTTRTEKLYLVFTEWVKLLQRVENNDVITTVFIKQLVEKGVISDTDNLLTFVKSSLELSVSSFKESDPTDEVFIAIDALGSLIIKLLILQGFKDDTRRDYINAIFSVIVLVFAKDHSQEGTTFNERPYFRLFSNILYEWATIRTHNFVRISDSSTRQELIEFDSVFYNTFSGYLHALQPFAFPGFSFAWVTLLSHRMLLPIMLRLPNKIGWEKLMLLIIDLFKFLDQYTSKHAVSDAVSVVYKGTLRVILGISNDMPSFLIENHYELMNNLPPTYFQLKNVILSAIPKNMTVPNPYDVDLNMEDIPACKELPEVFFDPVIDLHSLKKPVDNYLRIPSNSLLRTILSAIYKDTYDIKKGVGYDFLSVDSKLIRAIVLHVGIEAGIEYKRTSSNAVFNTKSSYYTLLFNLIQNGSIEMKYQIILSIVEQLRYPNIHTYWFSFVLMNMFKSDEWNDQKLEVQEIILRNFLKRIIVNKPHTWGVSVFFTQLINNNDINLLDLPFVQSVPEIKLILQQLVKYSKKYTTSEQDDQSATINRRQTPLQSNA

Take “TAP-tagged Dhh1 (from UniProt P39517) R55E; F62E; Q282E; N284E; R355E”: the ratio to parent is 0.44.
